Assay [1] deals with human insulin receptor isoform B (human) (UniProt P06213). Nature of the assay: cell-based or functional assay.
Assay [2] shares this target. As to the kind of experiment: SPA competition with [125I]-labelled human insulin, membranes of CHO cells overexpressing IR.

Bridge positions count the residues as written; N and C are the ends. Ends that are not written are not given here. I, II: the chains in the order shown. * marks the point of attachment. Formula (I) = human serum albumin binder 2-[2-[2-[2-[2-[2-[2-(carbonylmethoxy)ethoxy]ethylamino]-2-oxo-ethoxy]ethoxy]ethylamino]-2-oxo-ethoxy]-5-(18-carboxyoctadecyl)benzoic acid, amide to Lys epsilon-N, O=C(O)CCCCCCCCCCCCCCCCCCc1ccc(OCC(=O)NCCOCCOCC(=O)NCCOCCOCC(=O)*)c(C(=O)O)c1

Sequence of UniProt P06213 (P06213 28-1382): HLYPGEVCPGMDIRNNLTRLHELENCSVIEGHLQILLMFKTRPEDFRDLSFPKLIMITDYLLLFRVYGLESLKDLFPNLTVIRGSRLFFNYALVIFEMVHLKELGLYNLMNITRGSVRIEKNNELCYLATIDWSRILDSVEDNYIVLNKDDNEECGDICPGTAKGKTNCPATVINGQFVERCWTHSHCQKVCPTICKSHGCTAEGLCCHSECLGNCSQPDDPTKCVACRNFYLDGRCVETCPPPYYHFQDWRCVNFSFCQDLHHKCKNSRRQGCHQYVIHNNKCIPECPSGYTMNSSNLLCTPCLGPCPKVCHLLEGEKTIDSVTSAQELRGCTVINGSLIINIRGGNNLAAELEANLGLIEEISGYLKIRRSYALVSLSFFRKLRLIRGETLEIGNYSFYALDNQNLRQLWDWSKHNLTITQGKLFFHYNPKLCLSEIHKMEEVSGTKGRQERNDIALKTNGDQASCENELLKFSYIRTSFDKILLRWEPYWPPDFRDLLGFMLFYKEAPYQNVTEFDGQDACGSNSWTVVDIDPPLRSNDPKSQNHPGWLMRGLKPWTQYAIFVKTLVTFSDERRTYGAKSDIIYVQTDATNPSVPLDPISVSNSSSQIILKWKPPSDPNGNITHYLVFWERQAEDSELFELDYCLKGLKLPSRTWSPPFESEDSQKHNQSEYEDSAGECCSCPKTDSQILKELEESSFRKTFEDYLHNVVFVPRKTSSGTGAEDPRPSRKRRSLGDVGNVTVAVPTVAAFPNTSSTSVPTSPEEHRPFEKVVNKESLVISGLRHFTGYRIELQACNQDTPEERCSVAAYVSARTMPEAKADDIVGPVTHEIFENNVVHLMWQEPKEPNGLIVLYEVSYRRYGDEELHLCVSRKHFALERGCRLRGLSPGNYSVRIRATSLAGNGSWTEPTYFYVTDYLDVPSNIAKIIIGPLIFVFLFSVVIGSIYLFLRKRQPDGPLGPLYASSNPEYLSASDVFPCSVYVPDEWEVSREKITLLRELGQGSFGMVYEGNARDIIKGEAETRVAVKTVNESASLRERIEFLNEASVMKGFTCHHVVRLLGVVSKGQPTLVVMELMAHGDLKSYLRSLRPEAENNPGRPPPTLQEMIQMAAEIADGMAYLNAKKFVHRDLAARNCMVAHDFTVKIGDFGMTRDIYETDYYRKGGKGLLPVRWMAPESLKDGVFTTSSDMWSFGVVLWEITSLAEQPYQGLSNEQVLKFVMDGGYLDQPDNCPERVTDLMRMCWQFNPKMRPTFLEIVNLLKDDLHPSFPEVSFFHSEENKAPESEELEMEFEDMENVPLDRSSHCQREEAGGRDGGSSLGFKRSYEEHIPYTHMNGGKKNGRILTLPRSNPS

B1: Conjugate 1: Arg(A5)Glu(A14)Arg(A18)Gly(A21)Glu(B16)His(B25)Arg(B27)Arg(B31)-insulin with the human serum albumin binder of Formula (I) on Lys(B29) (ligand)
chain 1: GIVERCCTSICSLEQLERYCG
chain 2: FVNQHLCGSHLVEALELVCGERGFHYRPK(Formula (I))TR
modifications: disulfide I:6-I:11, I:20-II:19, I:7-II:7
The molecule B1 came in with an Autophosphorylation activity (relative to human insulin) (relative to human insulin) in assay [1] of 0.07. In assay [2], the Insulin receptor B binding affinity relative to human insulin is below 2% and the Insulin-receptor binding affinity relative to human insulin (relative to human insulin) is 0.01.

These data come from patent US20250082758A1.
